The source of these data is patent US20130129725A1 (published 2013).

First the molecules themselves.
B1: 1A2 (antibody, V domains shown)
VH: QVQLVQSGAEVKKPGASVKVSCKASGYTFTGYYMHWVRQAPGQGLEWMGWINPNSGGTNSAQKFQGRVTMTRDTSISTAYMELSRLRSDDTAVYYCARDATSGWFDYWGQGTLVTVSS
VL: DIVMTQTPLSSPVTLGQPASISCRSSQSLVYSDGNTYLSWLQQRPGQPPRLLIYKISNRFSGVPDRFSGSGAGTDFTLKISRVEADDVGIYYCMQAIEFPWTFGQGTQVEIKR
B2: 1B5 (antibody, V domains shown)
VH: QVQLVQSGAEVKKPGASVKVSCKASGYTFTAYYMHWVRQAPGQGLEWMGWINPNSGGTNSAQKFQGRVTMTRDTSIRTAYMELSWLRSDDTAVYYCARDATSGWFDFWGQGTPVTVSS
VL: DIVMTQTPLTSPVTLGQPASISCRSSQSLVHYDGNTYLSWLQQRPGQPPRLLIYKISNRFSGVPDRFSGSGAGTDFTLKISRVEAEDVGIYYCMQALEFPWTFGQGTKVEIKR
B3: 10H3 (antibody, V domains shown)
VH: QVQLVQSGAEVRKPGASVKVSCKASGYTFTAYYMHWVRQAPGQGLEWMGWINPYSGGTNSAQKFQGRVTMTRDTSISTAYMELSWLRSDDTAVYYCARDATSGWFDFWGQGTLVTVSS
VL: DIVMTQTPLSSPVTLGQPASISCRSSQSLVHYDGNTYLSWLQQRPGQPPRLLIYKISNRFSGVPDRFSGSGAGTDFTLKISRVAAEDVGIYYCMQALEFPWTFGQGTKVEIKR
B4: 3B4 (antibody, V domains shown)
VH: QVQLVQSGAEVKKPGASVKVSCKASGYTFTAYYMHWVRQAPGQGLEWMGWINPNSGGTNSAQKFQGRVTMTRDTSIRTAYMELSWLRSDDTAVYYCARDATSGWFDIWGQGTPVTVSS
VL: DIVMTQTPLSSPVTLGQPASISCRSSQSLVHYDGNTYLSWLQQRPGQPPRLLIYKISNRFSGVPDRFSGSGAGTDFTLKISRVEAEDVGIYYCMQALEFPWTFGQGTKVEIKR
B5: 8F9 (antibody, V domains shown)
VH: QVQLVESGGGVVQPGRSLRLSCAASGFTFSSYGMHWVRQAPGKGLEWVAVIWYDGRNKYHADSVKGRFTISRDNSKNTLYLQMNSLRAEDTAVYYCARDHPVAGTSFDYWGQGTLVTVSS
VL: QSVLTQPPSVSAAPGQKVTISCSGSSSNIGNNYVSWYQQLPGTAPKLLIYDNNKRPSGIPDRFSGSKSGTSATLGITGLQTGDEADYYCGTWDSSLSAVVFGGGTKLTVLG
B6: 9D10 (antibody, V domains shown)
VH: QVQLVESGGGVVQPGRSLRLSCAASGFTFRSYGMHWVRQAPGKGLEWVAVIWYDGRNEYYADSVKGRFTISRDNSKNTLYLRMNSLRAEDTAVYYCARDHPVAGTSFDYWGQGTLVTVSS
VL: QSVLTQPPSVSAAPGQKVTISCSGSSSNIGNNYVSWYQQLPGTAPKLLIYDNNRRPSGIPDRFSGSKSGTSATLGITGLQTGDEADYYCGTWDSSLSAVVFGGGTKLTVLG
B7: 3F4 (antibody, V domains shown)
VH: QVQLVESGGGVVQPGRSLRLSCAASGFIFRSYGMHWVRQAPGKGLEWVAVISYDGSNKYYADSVKGRFTISRDNSKNTLYLQMNSLRAEDTAVYYCARDHPVAGTSFDYWGQGTLVTVSS
VL: QSVLTQPPSVSAAPGQKVTISCSGSSSNIGNNYVSWYQQLPGTAPKLLIYDNNNRPSGIPDRFSGSKSGTSATLGITGLQTGDEADYYCETWDSSLSAGVFGGGTKLTVLG

For the assay, the target named is biotinylated hu-β-klotho (UniProt Q86Z14 53-996, biotinylated (sites not given)). Description: Octet BLI. (In general: Biolayer interferometry detects binding as a change in optical thickness at a sensor tip.)
Chain of biotinylated hu-β-klotho (Q86Z14 53-996): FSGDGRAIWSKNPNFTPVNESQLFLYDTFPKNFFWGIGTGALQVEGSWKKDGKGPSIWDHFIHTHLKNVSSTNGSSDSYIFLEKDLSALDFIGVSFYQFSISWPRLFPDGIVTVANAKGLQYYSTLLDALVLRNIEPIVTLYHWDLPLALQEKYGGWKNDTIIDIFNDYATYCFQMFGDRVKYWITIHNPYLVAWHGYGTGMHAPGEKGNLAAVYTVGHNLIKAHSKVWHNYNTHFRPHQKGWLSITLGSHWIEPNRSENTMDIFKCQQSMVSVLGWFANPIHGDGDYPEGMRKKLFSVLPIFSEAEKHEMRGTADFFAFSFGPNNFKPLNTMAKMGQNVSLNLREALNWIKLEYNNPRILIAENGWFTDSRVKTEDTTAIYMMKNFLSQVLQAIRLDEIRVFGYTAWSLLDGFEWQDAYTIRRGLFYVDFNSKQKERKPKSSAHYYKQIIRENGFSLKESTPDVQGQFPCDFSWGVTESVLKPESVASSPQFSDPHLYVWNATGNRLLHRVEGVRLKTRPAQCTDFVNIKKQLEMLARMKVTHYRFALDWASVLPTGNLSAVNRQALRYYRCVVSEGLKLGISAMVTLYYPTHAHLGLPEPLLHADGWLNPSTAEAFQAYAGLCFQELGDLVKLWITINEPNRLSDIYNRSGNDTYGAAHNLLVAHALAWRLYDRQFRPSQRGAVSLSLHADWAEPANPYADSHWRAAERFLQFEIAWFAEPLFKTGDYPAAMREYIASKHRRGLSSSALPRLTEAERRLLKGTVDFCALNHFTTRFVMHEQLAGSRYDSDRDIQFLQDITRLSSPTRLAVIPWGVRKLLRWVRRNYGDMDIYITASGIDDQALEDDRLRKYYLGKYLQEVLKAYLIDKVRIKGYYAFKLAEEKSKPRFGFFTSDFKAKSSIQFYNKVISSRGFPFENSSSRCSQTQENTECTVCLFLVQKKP
B1 showed a Kd of 2.14 nM. B2 yielded an equilibrium dissociation constant (Kd) of 0.578 nM. B3 came in with a Kd of 0.563 nM.

Take B4: the Kd is 6.08 nM.

Turning to B5, the affinity, expressed as Kd, was 0.422 nM. Molecule B6 showed an equilibrium dissociation constant (Kd) of 0.298 nM. B7 showed a dissociation constant (Kd) of 0.281 nM.

Broadly, the Kd is the equilibrium constant for the complex coming apart.
